In paper PMC6981927, “In Situ Proteolysis Condition-Induced Crystallization of the XcpVWX Complex in Different Lattices” (International Journal of Molecular Sciences, 2020):

B2: XcpW (28–237), soluble truncation of the minor pseudopilin XcpW (domain or fragment)
chain: RMFDSVMQTDQATRVQEQRMRELVRAMGALERDLTQAVERPVRDELGDNRGAFLSEGENDQIVEFTRGGWRNPLGQARSRLQRVRWSLSGETLERRYWLVLDRAQDSKPRVQQVLDGVTALSWRFLDKEHNWQGHWPTDEGSEEERLESLPLAVEMTLEHRHYGKLVRVWRLLDPPLKQDQPQGQPGGENGENGEGGVPQPPEGMPGAPE
notes: XcpW, minor pseudopilin of the type II secretion system, Pseudomonas aeruginosa PAO1, residues 28-237; Tags removed by TEV protease; residues left from the TEV site and the cloning site may remain at the N-terminus; In the crystals the complex was under in situ chymotrypsin proteolysis; source: E. coli (BL21 (DE3); results say codon plus cells), purified (Ni-NTA, TEV cleavage, second Ni-NTA, SEC …)

Columns and labels:
[1] = biological target: B2; test: SEC; three purified tag-free pseudopilins mixed at a molar ratio of 1.5:1:1 (XcpV:XcpW:XcpX), 4 °C overnight; Superdex 75, 25 mM HEPES pH 7.0, 150 mM NaCl, 1 mM CaCl2; peak fractions analysed by SDS-PAGE; conditions: both partners purified
[2] = biological target: T1, XcpX (29–313), soluble truncation of the minor pseudopilin XcpX (Pseudomonas aeruginosa PAO1, UniProt Q00518 29-313); test: as above; conditions: both partners purified
T1 construct: XcpX, minor pseudopilin of the type II secretion system, Pseudomonas aeruginosa PAO1, residues 29-313; Tags removed by TEV protease; residues left from the TEV site and the cloning site may remain at the N-terminus; In the crystals the complex was under in situ chymotrypsin proteolysis; some loops are missing in the model of 6UTU; source: E. coli (BL21 (DE3); results say codon plus cells), …
T1 sequence: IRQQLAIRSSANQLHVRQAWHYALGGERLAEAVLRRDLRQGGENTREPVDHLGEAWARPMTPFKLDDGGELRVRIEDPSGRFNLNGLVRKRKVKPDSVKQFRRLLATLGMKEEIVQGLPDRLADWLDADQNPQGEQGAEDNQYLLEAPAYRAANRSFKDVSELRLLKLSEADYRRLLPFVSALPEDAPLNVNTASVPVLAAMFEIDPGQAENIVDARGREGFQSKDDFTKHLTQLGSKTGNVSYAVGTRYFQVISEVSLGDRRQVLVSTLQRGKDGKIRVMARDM

B1: XcpV (28–129), soluble truncation of the minor pseudopilin XcpV (domain or fragment)
chain: SASARSLQNASRLEDKTLAMWIADNRLNELQLEQTPPSSGRNQGELEFAGRRWEWRTQVDSTAEQDMRRVIVWVAAKPLGRERGSIEERAAARLVGFLGSQP
notes: XcpV, minor pseudopilin of the type II secretion system, Pseudomonas aeruginosa PAO1, residues 28-129; Tags removed by TEV protease; residues left from the TEV site and the cloning site may remain at the N-terminus; In the crystals the complex was under in situ chymotrypsin proteolysis; loops 59-66 and 103-113 are missing in the model of 6UTU; source: E. coli (BL21 (DE3)); results say codon plus …
Which “stoichiometry N” value [1] does the source give for B1 here?
The value was roughly 1.

And the “stoichiometry N” value [2]?
Its value is roughly 1.

Which “stoichiometry N” value [2] does the source give for B2 here?
The value was roughly 1.
